PMC6823292, “Molecular structure of human synaptonemal complex protein SYCE1” (Chromosoma, 2019)

B1: human SYCE1 core (amino acids 25–179) (domain or fragment, UniProt Q8N0S2 25-179, looked up)
chain: GQDTSSQKIEDLMEMVQKLQKVGSLEPRVEVLINRINEVQQAKKKANKDLGEARTICEALQKELDSLHGEKVHLKEILSKKQETLRILRLHCQEKESEAHRKHTMLQECKERISALNLQIEEEKNKQRQLRLAFEEQLEDLMGQHKDLWDFHMPE
notes: also called SYCE1 structural core; source: E. coli BL21(DE3), purified (amylose, anion exchange, TEV cleavage, anion exchange, SEC); not shown: His, N-terminal, cleaved; MBP, N-terminal, cleaved
B2: MBP-SYCE1-MBP (N- and C-terminal MBP double fusion of SYCE1 core, amino acids 25–179) (domain or fragment, human, UniProt Q8N0S2 25-179, looked up)
chain: GQDTSSQKIEDLMEMVQKLQKVGSLEPRVEVLINRINEVQQAKKKANKDLGEARTICEALQKELDSLHGEKVHLKEILSKKQETLRILRLHCQEKESEAHRKHTMLQECKERISALNLQIEEEKNKQRQLRLAFEEQLEDLMGQHKDLWDFHMPE
notes: source: E. coli BL21(DE3), purified; not shown: MBP, N-terminal, kept; MBP, C-terminal, kept
B3: SYCE1-MBP (C-terminal MBP fusion of SYCE1 core, amino acids 25–179) (domain or fragment, human, UniProt Q8N0S2 25-179, looked up)
chain: GQDTSSQKIEDLMEMVQKLQKVGSLEPRVEVLINRINEVQQAKKKANKDLGEARTICEALQKELDSLHGEKVHLKEILSKKQETLRILRLHCQEKESEAHRKHTMLQECKERISALNLQIEEEKNKQRQLRLAFEEQLEDLMGQHKDLWDFHMPE
notes: source: E. coli BL21(DE3), purified; not shown: MBP, C-terminal, kept
B4: MBP-SYCE1 (N-terminal MBP fusion of SYCE1 core, amino acids 25–179) (domain or fragment, human, UniProt Q8N0S2 25-179, looked up)
chain: GQDTSSQKIEDLMEMVQKLQKVGSLEPRVEVLINRINEVQQAKKKANKDLGEARTICEALQKELDSLHGEKVHLKEILSKKQETLRILRLHCQEKESEAHRKHTMLQECKERISALNLQIEEEKNKQRQLRLAFEEQLEDLMGQHKDLWDFHMPE
notes: pMAT11 gives a His-MBP fusion with a TEV site; source: E. coli BL21(DE3), purified; not shown: MBP, N-terminal, kept
B5: human SYCE1 full length (amino acids 1–351) (natural protein, UniProt Q8N0S2 1-351, looked up)
chain: MAGRSLTSKAEPTAGAVDRAEKAGGQDTSSQKIEDLMEMVQKLQKVGSLEPRVEVLINRINEVQQAKKKANKDLGEARTICEALQKELDSLHGEKVHLKEILSKKQETLRILRLHCQEKESEAHRKHTMLQECKERISALNLQIEEEKNKQRQLRLAFEEQLEDLMGQHKDLWDFHMPERLAKEICALDSSKEQLLKEEKLVKATLEDVKHQLCSLCGAEGPSTLDEGLFLRSQEAAATVQLFQEEHRKAEELLAAAAQRHQQLQQKCQQQQQKRQRLKEELEKHGMQVPAQAQSTQEEEAGPGDVASPKPLKGERPGAAHQAGPDVLIGQEDTLHPDLSPRGFQEIKELF
notes: synaptonemal complex central element protein 1 (SYCE1), human, full length, amino acids 1–351; also called full-length SYCE1; source: E. coli BL21(DE3), purified (amylose, anion exchange, TEV cleavage, anion exchange, SEC); not shown: His, N-terminal, cleaved; MBP, N-terminal, cleaved

Target: the molecule itself
Assay: SEC-MALS; 6–20 mg/ml loaded on Superdex 200 Increase 10/300 GL in 20 mM Tris pH 8.0, 150 mM KCl, 2 mM DTT

Stoichiometry N, 2:
B1
B2
B3
B4
B5
